Assay results taken from article PMC11161652, “ASXLs binding to the PHD2/3 fingers of MLL4 provides a mechanism for the recruitment of BAP1 to active enhancers” (Nature Communications, 2024).

How the values were obtained:
GST-MLL4PHD2/3 = experiment: GST pull-down, WT MLL4PHD2/3; assay type: binding, human; conditions: WT GST-MLL4PHD2/3; HEK293FT lysate, 3 h at 4 °C, western blot; n = 3
Protocol: (§1) Pull-down assays were performed by mixing resin-bound GST-MLL3PHD2/3 and GST-MLL4PHD2/3 (wild type and mutants) with lysates of HEK293FT expressing Myc-ASXL1, Myc-ASXL2 or Myc-ASXL2ΔMBH. Pellets of HEK293FT cells transfected with the appropriate pDEST expression construct (15 μg/dish using polyethylenimine (PEI)) were lysed with 10 times their volume of lysis buffer (50 mM Tris pH 7.3, 100 mM NaCl, 1 mM DTT, 1 mM EDTA, 1 mM PMSF, 0.1% Tween20, 1/100 anti-protease (Sigma)) and sonicated with a probe sonicator (Branson digital sonifier 450) calibrated at 40% amplitude for 3–4 rounds during 40–60 s. Lysates were then centrifuged in a Sorvall Lynx 6000 (rotor: F21-8x50Y) at 15,000 RPM during 20 min. Approximatively 9 μg of purified GST-fusion proteins bound to GSH resin (Sigma, G4510) were used for each condition. Final volume of GSH resin was adjusted to 30 μl per condition with empty GSH beads and incubated with 1.5 mL of HEK293FT lysate expressing Myc-ASXL1, Myc-ASXL2 or Myc-ASXL2ΔMBH for 3 h at 4 °C on a rotative system. A fraction of the reaction mixture (80 μL) was collected as the input. After the incubation, beads were washed 5 times and mixed with 100 μL of Laemmli buffer. Samples were loaded on 8% or 15% SDS-acrylamide gels and processed for western blotting.

[1] = system: H3K4 (recombinant histone octamers or mono-nucleosomes); experiment: H3K4 histone methyltransferase assay; assay type: biochemical, human; conditions: purified complexes, 50 μM S-adenosyl-L-methionine, 8 h at 30 °C, n = 2
Protocol: Equivalent amounts of purified ASXL2 WT and ΔMBH complexes were incubated with 0.5 μg of reconstituted recombinant mono-nucleosomes or histone octamers as substrates. All HMT assays were performed in 50 mM Tris-HCl pH 8, 100 mM KCl, 5 mM MgCl2, 0.1 mM DTT, 10% glycerol in the presence of 50 μM S-adenosyl-L-methionine (Sigma, A7007). After an 8 h incubation at 30 °C, 4X Laemmli buffer was added, the samples run on 15% SDS-PAGE and transferred on nitrocellulose membrane. Immunoblotting was performed with an anti-H3K4me1 (Ab8895, rabbit polyclonal) diluted 1:1000 followed by HRP conjugated secondary goat anti-rabbit antibody (Sigma) used at a 1:10,000 dilution. The immunoblots were visualized using a Western Lightning plus-ECL reagent (Perkin-Elmer). Anti-H4 (Abcam, Ab7311, rabbit polyclonal) was used at a 1:2,500 dilution.

PR-DUB complex = experiment: Tandem affinity purification: association with PR-DUB complex; assay type: cell-based, human; conditions: K562 soluble nuclear extracts, 3Flag-2Strep tag, western blot and mass spectrometry
Protocol: (§2) Isogenic K562 cell lines expressing 3xFlag2xStrep-tagged ASXL2 WT and ΔMBH (aa 650-670), were generated by integration at the AAVS1 safe harbor locus after DSB induction and recombination targeted by co-transfection with a ZFN expression plasmid, as previously described. 2 × 10^5 cells were transfected with 400 ng of ZFN expression vector and 4 μg of donor constructs. Selection and cloning were performed in RPMI medium supplemented with 0.5 μg/mL puromycin starting 2–3 days post transfection. Clones were obtained by limiting dilution and expanded before harvest for western blot analysis.
(§3) For purification of native complexes, after large-scale expansion of K562 clones, affinity purifications of tagged ASXL2 WT and ΔMBH (aa 650-670) were performed on nuclear extracts as previously described. Briefly, nuclear extracts were prepared following standard procedures and pre-cleared with CL6B Sepharose beads. […] Typically, 5–15 μl of the elutions (1–3% of total) was loaded on NuPAGE 4–12% Bis-Tris gels (Invitrogen) and analyzed by silver staining and western blots. […] Purified fractions were prepared and analyzed at the Proteomics Platform of the Quebec Genomic Center using an Orbitrap Fusion mass spectrometer (Thermo Fisher Scientific) as previously described. […]

GST-MLL3PHD2/3 = experiment: GST pull-down, WT MLL3PHD2/3; assay type: binding, human; conditions: WT GST-MLL3PHD2/3; HEK293FT lysate, 3 h at 4 °C, western blot; n = 3
Protocol: as §1

[2] = system: active enhancer upstream of GRHL2 gene in K562 ASXL2 KD cells; experiment: ChIP-qPCR at active enhancer upstream of GRHL2; assay type: cell-based, human; conditions: K562 ASXL2 KD cells complemented from AAVS1; IP/input corrected for total H3; three biological replicates
Text: K562 cell lines with knocked down expression of endogenous ASXL2 were obtained after double infection of lentivirus expressing Cas9 and 4 different gRNAs targeting the end of exon 1 (pLENTI_CRISPR_V2, co-selection by FACS with GFP). Clone 1 L was selected (obtained with gRNA 1: 5′-[…]-3′ cutting at the very end of exon 1) for transfection of WT and DMBH ASXL2 vectors for integration and stable expression from the AAVS1 safe harbor, as described for the tagged K562 cell lines used for purification. Expression levels of endogenous ASXL2, WT and ΔMBH ASXL2 were monitored by running SDS-PAGE and transferring onto nitrocellulose membrane. Anti-FLAG M2 conjugated to horseradish peroxidase (A8592, Sigma) was used at 1:10,000 dilution and anti-ASXL2, at 1:2,000 (Cell Signaling (E623X), CS71257, lot:1). Immunoblots were visualized using a Western Lightning plus ECL reagent (Perkin-Elmer).
Crosslinked chromatin from K562 cells and immunoprecipitations were prepared as previously described. For chromatin immunoprecipitation, 100 μg of chromatin was incubated with 2 μg anti-H2AK119ub (Cell Signaling, 8240S, D27C4 lot:9) or 3 μg anti-H3 (Abcam, ab1791, lot GR3421644-1), 2 μg anti-H3Kme1 (Abcam, ab8895, lot GR442591-1), 2 μg anti-H3K27ac (Thermo Fisher, MA5-23516, lot: ZA4181671) or 0.3 μg anti-H3K27me3 (Cell Signaling, C36B11, 9733 S lot:19) antibodies overnight at 4 °C. 25 μl of Protein A Dynabeads were then added to each sample, and the mixtures were incubated at 4 °C for 4 h. The beads were washed extensively and eluted with 1% SDS and 0.1 M NaHCO3. Cross-linked samples were reversed by heating overnight at 65 °C in the presence of 0.2 M NaCl. Samples were then treated with RNase A and proteinase K for 2 h, and DNA was recovered using MinElute PCR purification Kit (Qiagen, 28004) according to the manufacturer’s instructions. Quantitative real-time PCR corrected for primer efficiencies in the linear range was performed using SYBR Green I (Roche, 04877352001) on a LightCycler 480 (Roche). Primers for 5′ end of active enhancer: Fwd: 5′-[…]; Rev: 5′-[…]; For 3′ end: Fwd: 5′-[…], Rev: 5′-[…].

H2AK119 = H2AK119 deubiquitination assay; assay type: biochemical, human
Protocol: The deubiquitination reactions were done by adding equivalent amounts of ASXL2 WT or ΔMBH (4 μl E1-F) native complexes purified from K562 cells to 0.5 μg of chromatin enriched extracts from K562 cells, incubated at 37 °C in 50 mM Tris-HCl pH 7.3, 50 mM NaCl, 1 mM MgCl2, 1 mM DTT, 1 mM PMSF, 10 μg/ml Leupeptin, 10 μg/ml Pepstatin A, 25 μg/ml Aprotinin. After 3 or 6 h incubation, 4X Laemmli buffer was added, the samples run on 15% SDS-PAGE and transferred on nitrocellulose membrane. Immunoblotting was performed with an anti-H2AK119ub (Cell Signaling, D27C4, rabbit polyclonal) diluted 1:2000 followed by HRP conjugated secondary goat anti-rabbit antibody (Sigma) used at a 1:10,000 dilution. The immunoblots were visualized using a Western Lightning plus-ECL reagent (Perkin-Elmer). Anti-H3 (Abcam, Ab1791, rabbit polyclonal) was used at a 1:50,000 dilution.
Cell pellets were harvested 2 days post-transfection and lysed with 10 times their own volume with EB300 lysis buffer (50 mM Tris pH 7.3, 300 mM NaCl, 0.5% Triton X100 (V/V), 5 mM EDTA, 50 mM NaF, 1 mM Na3VO4 (activated), 10 mM Beta-glycerol-phosphate, 1 mM DTT, 1 mM PMSF, 1/100 anti-protease (Sigma)). Lysates were incubated on ice for 30 min before centrifugation in a Sorvall Lynx 6000 (rotor: F21-8x50Y) at 15,000 RPM during 20 min. Supernatants were collected and diluted with EB0 (50 mM Tris pH 7.3, 0.5% Triton X100 (V/V), 5 mM EDTA, 50 mM NaF, 1 mM Na3VO4, 10 mM Beta-glycerol-phosphate, 1 mM DTT, 1 mM PMSF, 1/100 anti-protease) to adjust the final concentration of NaCl to 150 mM. Agarose anti-FlagM2 beads (40 μL) (Sigma, A2220) were added to each lysate and incubated overnight at 4 °C on a rotative system. The next day, beads were washed 5 times with the wash buffer (50 mM Tris pH 7.3, 150 mM NaCl, 0.5% Triton X100 (V/V), 1/500 anti-protease, 1 mM DTT, 1 mM PMSF). […] Following three elutions of 2 h each, the pooled fractions were incubated with 40 μL of anti-HA beads (Sigma A2095) overnight at 4 °C on a rotative system. […]

MLL3/4 complexes = experiment: Tandem affinity purification: interaction with MLL3/4 complexes; assay type: cell-based, human; conditions: K562 soluble nuclear extracts, 3Flag-2Strep tag, western blot and mass spectrometry
Protocol: as §2, §3

mono-methylation of H3K4 [1]: markedly decreased
B1: ASXL2ΔMBH: ΔMBH ASXL2 mutant lacking the MLL3/4-binding domain (aa 650-670) (protein)
chain: MREKGRRKKGRTWAEAAKTVLEKYPNTPMSHKEILQVIQREGLKEIRSGTSPLACLNAMLHTNSRGEEGIFYKVPGRMGVYTLKKDVPDGVKELSEGSEESSDGQSDSQSSENSSSSSDGGSNKEGKKSRWKRKVSSSSPQSGCPSPTIPAGKVISPSQKHSKKALKQALKQQQQKKQQQQCRPSISISSNQHLSLKTVKAASDSVPAKPATWEGKQSDGQTGSPQNSNSSFSSSVKVENTLLGLGKKSFQRSERLHTRQMKRTKCADIDVETPDSILVNTNLRALINKHTFSVLPGDCQQRLLLLLPEVDRQVGPDGLMKLNGSALNNEFFTSAAQGWKERLSEGEFTPEMQVRIRQEIEKEKKVEPWKEQFFESYYGQSSGLSLEDSKKLTASPSDPKVKKTPAEQPKSMPVSEASLIRIVPVVSQSECKEEALQMSSPGRKEECESQGEVQPNFSTSSEPLLSSALNTHELSSILPIKCPKDEDLLEQKPVTSAEQESEKNHLTTASNYNKSESQESLVTSPSKPKSPGVEKPIVKPTAGAGPQETNMKEPLATLVDQSPESLKRKSSLTQEEAPVSWEKRPRVTENRQHQQPFQVSPQPFLNRGDRIQVRKVPPLKIPVSRISPMPFHPSQVSPRARFPVSITSPRAAAAAAAAAAAAASVGGTIPGPGPGGGQGPGEGGEGQTARGGSPGSDRVSETGKGPTLELAGTGSRGGTRELLPCGPETQPQSETKTTPSQAQPHSVSGAQLQQTPPVPPTPAVSGACTSVPSPAHIEKLDNEKLNPTRATATVASVSHPQGPSSCRQEKAPSPTGPALISGASPVHCAADGTVELKAGPSKNIPNPSASSKTDASVPVAVTPSPLTSLLTTATLEKLPVPQVSATTAPAGSAPPSSTLPAASSLKTPGTSLNMNGPTLRPTSSIPANNPLVTQLLQGKDVPMEQILPKPLTKVEMKTVPLTAKEERGMGALIATNTTENSTREEVNERQSHPATQQQLGKTLQSKQLPQVPRPLQLFSAKELRDSSIDTHQYHEGLSKATQDQILQTLIQRVRRQNLLSVVPPSQFNFAHSGFQLEDISTSQRFMLGFAGRRTSKPAMAGHYLLNISTYGRGSESFRRTHSVNPEDRFCLSSPTEALKMGYTDCKNATGESSSSKEDDTDEESTGDEQESVTVKEEPQVSQSAGKGDTSSGPHSRETLSTSDCLASKNVKAEIPLNEQTTLSKENYLFTRGQTFDEKTLARDLIQAAQKQMAHAVRGKAIRSSPELFSSTVLPLPADSPTHQPLLLPPLQTPKLYGSPTQIGPSYRGMINVSTSSDMDHNSAVPGSQVSSNVGDVMSFSVTVTTIPASQAMNPSSHGQTIPVQAFSEENSIEGTPSKCYCRLKAMIMCKGCGAFCHDDCIGPSKLCVSCLVVR
modifications: left off: 3xFlag, end not stated, kept | 2xStrep, end not stated, kept
association in pull-down (GST-MLL4PHD2/3): essentially abolished
association with PR-DUB complex (PR-DUB complex): stably associates with the expected components of the PR-DUB complex
association in pull-down (GST-MLL3PHD2/3): essentially abolished
H2AK119ub level [2]: not the ΔMBH ASXL2 mutant led to a decrease in H2AK119ub level
H3K4me1 level [2]: not affected
deubiquitinase activity toward H2AK119Ub in vitro (H2AK119; BAP1/ASXL2 complexes from co-transfected HEK293FT cells, purified native nucleosomes, room temperature, n=2): does not affect
de-ubiquitination of H2AK119 (H2AK119; purified complexes on human chromatin, 37 °C, 3 or 6 h, immunoblot): efficient and equivalent de-ubiquitination of H2AK119
interaction with MLL3/4 complexes (MLL3/4 complexes): abrogated the interaction between ASXL2 and MLL3/4 in vivo
